We go through ten molecules from US20250388702A1 (Dana-Farber, published 2025).

The chains are these.
B1: KIR2DS2 (receptor, UniProt P43631 22-304, looked up)
chain: HEGVHRKPSLLAHPGPLVKSEETVILQCWSDVRFEHFLLHREGKYKDTLHLIGEHHDGVSKANFSIGPMMQDLAGTYRCYGSVTHSPYQLSAPSDPLDIVITGLYEKPSLSAQPGPTVLAGESVTLSCSSRSSYDMYHLSREGEAHERRFSAGPKVNGTFQADFPLGPATHGGTYRCFGSFRDSPYEWSNSSDPLLVSVTGNPSNSWPSPTEPSSKTGNPRHLHVLIGTSVVKIPFTILLFFLLHRWCSNKKNAAVMDQEPAGNRTVNSEDSDEQDHQEVSYA
notes: whole, on cells
B5: KIR2DS5 (receptor, UniProt Q14953 22-304, looked up)
chain: HEGFRRKPSLLAHPGPLVKSEETVILQCWSDVMFEHFLLHREGTFNHTLRLIGEHIDGVSKGNFSIGRMTQDLAGTYRCYGSVTHSPYQLSAPSDPLDIVITGLYEKPSLSAQPGPTVLAGESVTLSCSSRSSYDMYHLSREGEAHERRLPAGPKVNRTFQADFPLDPATHGGTYRCFGSFRDSPYEWSKSSDPLLVSVTGNSSNSWPSPTEPSSETGNPRHLHVLIGTSVVKLPFTILLFFLLHRWCSNKKNASVMDQGPAGNRTVNREDSDEQDHQEVSYA
notes: whole, on cells
B8: KIR2DL3 (receptor, UniProt P43628 22-341, looked up)
chain: HEGVHRKPSLLAHPGPLVKSEETVILQCWSDVRFQHFLLHREGKFKDTLHLIGEHHDGVSKANFSIGPMMQDLAGTYRCYGSVTHSPYQLSAPSDPLDIVITGLYEKPSLSAQPGPTVLAGESVTLSCSSRSSYDMYHLSREGEAHERRFSAGPKVNGTFQADFPLGPATHGGTYRCFGSFRDSPYEWSNSSDPLLVSVTGNPSNSWPSPTEPSSETGNPRHLHVLIGTSVVIILFILLLFFLLHRWCCNKKNAVVMDQEPAGNRTVNREDSDEQDPQEVTYAQLNHCVFTQRKITRPSQRPKTPPTDIIVYTELPNAEP
notes: whole, on cells
B9: KIR2DS1 (receptor, UniProt Q14954 22-304, looked up)
chain: HEGVHRKPSLLAHPGRLVKSEETVILQCWSDVMFEHFLLHREGMFNDTLRLIGEHHDGVSKANFSISRMKQDLAGTYRCYGSVTHSPYQLSAPSDPLDIVIIGLYEKPSLSAQPGPTVLAGENVTLSCSSRSSYDMYHLSREGEAHERRLPAGTKVNGTFQANFPLGPATHGGTYRCFGSFRDSPYEWSKSSDPLLVSVTGNPSNSWPSPTEPSSETGNPRHLHVLIGTSVVKIPFTILLFFLLHRWCSDKKNAAVMDQEPAGNRTVNSEDSDEQDHQEVSYA
notes: whole, on cells
B10: KIR2DS3 (receptor, UniProt Q14952 22-304, looked up)
chain: HEGFRRKPSLLAHPGRLVKSEETVILQCWSDVMFEHFLLHREGTFNDTLRLIGEHIDGVSKANFSIGRMRQDLAGTYRCYGSVPHSPYQFSAPSDPLDIVITGLYEKPSLSAQPGPTVLAGESVTLSCSSWSSYDMYHLSTEGEAHERRFSAGPKVNGTFQADFPLGPATQGGTYRCFGSFHDSPYEWSKSSDPLLVSVTGNPSNSWPSPTEPSSKTGNPRHLHVLIGTSVVKLPFTILLFFLLHRWCSDKKNASVMDQGPAGNRTVNREDSDEQDHQEVSYA
notes: whole, on cells

Test [1] deals with T1, Human HHLA2-mIgG2a fusion protein (human; mouse, UniProt Q9UM44 23-344, limits assumed).
T1 construct: also called HHLA2-Ig; HHLA2-mouse IgG2a; not shown: mutated at IgG2a L235E, E318A, K320A, K322A
T1 sequence: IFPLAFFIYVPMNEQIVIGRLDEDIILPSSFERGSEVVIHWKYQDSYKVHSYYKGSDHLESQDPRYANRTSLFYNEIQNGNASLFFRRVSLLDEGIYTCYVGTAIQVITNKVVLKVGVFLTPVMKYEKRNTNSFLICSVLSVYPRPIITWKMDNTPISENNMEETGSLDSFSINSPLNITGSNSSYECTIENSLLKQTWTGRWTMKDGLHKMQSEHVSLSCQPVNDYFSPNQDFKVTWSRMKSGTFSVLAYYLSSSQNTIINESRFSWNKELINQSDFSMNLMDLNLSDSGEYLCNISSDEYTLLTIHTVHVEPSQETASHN
The experiment in a line: cell microarray on transfected HEK293 cells, HHLA2-mIgG2a probe, AF647 anti-mouse IgG detection. The method, then: A library of ˜5500 full length cDNA clones covering more than 3,500 different plasma membrane proteins was arrayed in duplicate across 13 microarray slides (“slide sets”). Human HEK293 cells were grown above the cDNA clones and reverse-transfected. An expression vector (pIRES-hEGFR-IRES-ZsGreen1) was spotted in quadruplicate on every slide and was used to ensure that a minimal threshold of transfection efficiency had been achieved or exceeded on every slide.
Two replicate slides were screened for each of the 13 slide sets. Fluorescent images were analyzed and quantitated (for transfection efficiency) using ImageQuant software (GE). A protein ‘hit’ was defined as duplicate spots showing a raised signal compared to background levels. This was achieved by visual inspection using the images gridded on the ImageQuant software.

In test [2] the target is T2, KIR3DL2 (UniProt P43630 22-455, limits assumed).
T2 construct: whole, on cells
T2 sequence (P43630 22-455 limits assumed): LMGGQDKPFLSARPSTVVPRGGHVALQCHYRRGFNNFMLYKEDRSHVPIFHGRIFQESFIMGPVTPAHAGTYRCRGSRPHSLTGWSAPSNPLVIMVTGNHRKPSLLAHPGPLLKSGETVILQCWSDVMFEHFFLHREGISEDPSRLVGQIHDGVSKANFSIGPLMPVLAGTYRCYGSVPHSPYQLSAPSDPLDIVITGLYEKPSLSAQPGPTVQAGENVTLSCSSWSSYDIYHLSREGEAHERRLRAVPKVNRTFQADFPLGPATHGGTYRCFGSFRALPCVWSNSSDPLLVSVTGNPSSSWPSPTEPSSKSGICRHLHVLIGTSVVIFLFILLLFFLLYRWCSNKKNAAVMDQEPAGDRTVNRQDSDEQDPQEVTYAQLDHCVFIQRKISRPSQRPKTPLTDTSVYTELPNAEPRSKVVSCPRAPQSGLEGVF
The experiment in a line: HEK293 cell microarray. The method, then: (§1) Replicate microarray slides expressing a complete KIR family cDNA panel were fixed and blocked with buffer containing PBS/0.5% BSA and incubated for 1 hour at room temperature with individual KIR3DL3 mAb hybridoma supernatants at 1:5, 1:25 and 1:250 dilutions in PBS/0.1% BSA. Cell arrays were washed with PBS and incubated for 1 hour at room temperature in PBS/0.1% BSA containing AF647-conjugated goat anti-mouse IgG (H+L) (Life Technologies, A21235). Slides were washed with PBS, dried, and imaged for ZsGreen1 and AF647 fluorescence.
(§2) In Table 4, replicate microarray slides expressing the KIR family cDNA panel (as in FIG. 1A, FIG. 2B, and FIG. 2C) were fixed and blocked with buffer containing PBS/0.5% BSA and incubated for 1 hour at room temperature with individual KIR3DL3 mAb hybridoma supernatants at 1:5, 1:25 and 1:250 dilutions in PBS/0.1% BSA. Cell arrays were washed with PBS and incubated for 1 hour at room temperature in PBS/0.1% BSA containing AF647-conjugated goat anti-mouse IgG (H+L) (Life Technologies, A21235). Slides were washed with PBS, dried, and imaged for ZsGreen1 and AF647 fluorescence.

Test [3] addresses B9. In words: HEK293 cell microarray. The method, then: as §1, §2
The target in test [4] is T3, KIR3DS1 (UniProt Q14943 22-382, limits assumed).
T3 construct: whole, on cells
T3 sequence (Q14943 22-382 limits assumed): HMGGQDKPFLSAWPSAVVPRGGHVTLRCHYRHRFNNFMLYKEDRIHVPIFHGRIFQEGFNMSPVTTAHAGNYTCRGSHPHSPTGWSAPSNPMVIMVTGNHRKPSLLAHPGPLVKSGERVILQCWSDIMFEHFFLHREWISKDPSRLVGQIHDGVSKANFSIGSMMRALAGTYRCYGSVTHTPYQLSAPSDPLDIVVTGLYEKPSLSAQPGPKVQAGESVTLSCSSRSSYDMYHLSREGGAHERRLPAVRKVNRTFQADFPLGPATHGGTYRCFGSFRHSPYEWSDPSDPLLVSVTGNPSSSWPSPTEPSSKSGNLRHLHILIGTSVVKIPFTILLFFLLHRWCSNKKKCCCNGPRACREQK
In words: HEK293 cell microarray. The method, then: as §1, §2

For test [5], the target named is T4, KIR2DL4 (UniProt Q99706 22-377, limits assumed).
T4 construct: whole, on cells
T4 sequence (Q99706 22-377 limits assumed): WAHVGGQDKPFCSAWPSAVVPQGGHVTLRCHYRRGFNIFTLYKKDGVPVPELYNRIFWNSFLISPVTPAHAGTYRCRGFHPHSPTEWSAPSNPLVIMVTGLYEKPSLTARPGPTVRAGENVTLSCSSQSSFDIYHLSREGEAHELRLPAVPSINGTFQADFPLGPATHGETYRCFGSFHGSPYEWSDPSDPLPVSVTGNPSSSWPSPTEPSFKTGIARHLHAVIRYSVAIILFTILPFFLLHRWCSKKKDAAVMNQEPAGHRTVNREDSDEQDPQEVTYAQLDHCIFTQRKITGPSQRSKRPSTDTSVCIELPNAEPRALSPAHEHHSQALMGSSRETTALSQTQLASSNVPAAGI
The experiment in a line: HEK293 cell microarray. The method, then: as §1, §2

The target in test [6] is T5, KIR3DL1 (UniProt P43629 22-444, limits assumed).
T5 construct: whole, on cells
T5 sequence (P43629 22-444 limits assumed): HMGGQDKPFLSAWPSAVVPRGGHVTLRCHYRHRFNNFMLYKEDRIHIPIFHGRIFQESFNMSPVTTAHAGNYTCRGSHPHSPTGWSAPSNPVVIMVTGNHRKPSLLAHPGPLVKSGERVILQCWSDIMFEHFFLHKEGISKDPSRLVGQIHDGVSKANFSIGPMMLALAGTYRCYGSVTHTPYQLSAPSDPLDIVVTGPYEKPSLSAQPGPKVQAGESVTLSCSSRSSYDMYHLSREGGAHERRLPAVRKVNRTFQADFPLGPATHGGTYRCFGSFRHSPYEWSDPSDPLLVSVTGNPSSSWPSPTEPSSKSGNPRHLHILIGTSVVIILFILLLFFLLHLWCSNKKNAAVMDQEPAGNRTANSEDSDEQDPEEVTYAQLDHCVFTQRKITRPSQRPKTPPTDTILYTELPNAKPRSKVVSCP
The experiment in a line: HEK293 cell microarray. The method, then:
as §1, §2

Test [7] deals with T6, KIR2DL1 (UniProt P43626 22-348, limits assumed).
T6 construct: whole, on cells
T6 sequence (P43626 22-348 limits assumed): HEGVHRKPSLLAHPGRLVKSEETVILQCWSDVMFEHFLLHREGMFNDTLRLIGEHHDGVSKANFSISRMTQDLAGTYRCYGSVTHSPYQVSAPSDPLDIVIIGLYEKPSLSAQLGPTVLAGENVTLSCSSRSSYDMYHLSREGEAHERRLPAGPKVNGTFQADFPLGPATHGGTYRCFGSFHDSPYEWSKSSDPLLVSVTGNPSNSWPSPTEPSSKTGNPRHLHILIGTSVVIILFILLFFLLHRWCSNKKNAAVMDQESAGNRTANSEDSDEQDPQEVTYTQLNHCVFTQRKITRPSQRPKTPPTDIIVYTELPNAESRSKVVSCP
The experiment in a line: HEK293 cell microarray. The method, then:
as §1, §2

Test [8] has as its target B8. In words: HEK293 cell microarray. The method, then: as §1, §2
Test [9] addresses B10. The experiment in a line: HEK293 cell microarray. The method, then:
as §1, §2

The target of test [10] is B1. The experiment in a line: HEK293 cell microarray. The method, then: as §1, §2
Test [11] addresses B5. In words: HEK293 cell microarray. The method, then:
as §1, §2

In test [12] the target is T7, KIR2DL2 (UniProt P43627 22-348, limits assumed).
T7 construct: whole, on cells
T7 sequence (P43627 22-348 limits assumed): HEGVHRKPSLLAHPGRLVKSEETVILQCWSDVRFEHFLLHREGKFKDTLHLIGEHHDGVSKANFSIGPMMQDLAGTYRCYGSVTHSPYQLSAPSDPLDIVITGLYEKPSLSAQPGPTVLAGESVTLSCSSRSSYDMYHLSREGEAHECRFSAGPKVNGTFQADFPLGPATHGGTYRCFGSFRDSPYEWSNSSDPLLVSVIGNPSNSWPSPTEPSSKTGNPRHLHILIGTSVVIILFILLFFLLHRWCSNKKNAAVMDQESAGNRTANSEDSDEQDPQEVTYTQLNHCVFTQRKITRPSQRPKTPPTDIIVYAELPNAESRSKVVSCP
The experiment in a line: HEK293 cell microarray. The method, then:
as §1, §2

Test [13] concerns the target T8, Human PD1, Sino Biological Cat #: HPLC-10377-H08H (human, UniProt Q15116 25-167).
T8 construct: Bought; also called PD-1 (Octet antigen)
In words: BLI (Octet RED96), antibody captured on the sensor, antigen in solution, 1:1 model. The method, then: (§3) Binding experiments were performed on Octat Red af 25″° C. The human antibodies were loaded onto Anti-higG Fe Capture biosensors and the mouse antibodies were loaded onto Anti-migG Fe Capture biosensors both for 300 seconds. The ligand loaded sensors were dipped into a 3-fold series dilution (starting at 300 nad) of the antigens (PD-1 and KIR3DL3) for 240 seconds followed by dissociation for 400 seconds. Kinetic constanta were calculated using a monovalent (1:1) binding model Antigen: Haman PD1, Sino Biological Cat #: HPLC-10377-HOSH.

Test [14] deals with T9, Human KIR3DL3, Sino Biological Cat#: 16055-H08H (human, UniProt Q8N743 26-322).
T9 construct: Bought soluble antigen; also called KIR3DL3 (Octet antigen)
T9 sequence (Q8N743 other isoform, or with tags, fused parts or gaps H08H H08H limits assumed): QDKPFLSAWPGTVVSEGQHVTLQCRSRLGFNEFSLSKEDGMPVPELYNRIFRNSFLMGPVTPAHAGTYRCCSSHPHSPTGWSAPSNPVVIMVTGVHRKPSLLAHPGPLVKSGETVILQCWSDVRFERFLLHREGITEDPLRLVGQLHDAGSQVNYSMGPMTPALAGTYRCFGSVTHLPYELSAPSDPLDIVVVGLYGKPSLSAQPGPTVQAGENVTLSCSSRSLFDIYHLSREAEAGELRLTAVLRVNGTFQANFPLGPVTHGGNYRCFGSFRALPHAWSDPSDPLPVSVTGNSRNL
Described as above. The method, then: as §3

Broadly, the Kd is the free concentration of one partner at which half of the binding sites on the other are occupied at equilibrium, for simple one-to-one binding. A high value points to a looser complex. Usually koff stands for the rate constant with which the complex falls apart. Lower therefore signals a long-lived complex. Usually kon stands for a measure of how fast the partners come together.

T8 sequence (Q15116 25-167 limits assumed): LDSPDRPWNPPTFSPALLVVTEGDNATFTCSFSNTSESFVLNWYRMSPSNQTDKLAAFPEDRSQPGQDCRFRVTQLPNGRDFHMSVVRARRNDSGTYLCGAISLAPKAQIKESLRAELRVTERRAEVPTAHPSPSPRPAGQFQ

For the molecule B1, the binding result in [1] is recorded as “no binding (tested: 20 ug/ml)”.

B2: KIR3DL3 mAb 574.2.1D12.1.6 (antibody, IgG2a, V domains shown)
VH: QVQLQQSGAELVRPGTSVKVSCKASGYAFNNYLIEWVKQRPGQGLEWIGVINPGSGGTNDNEKFRGKATLTADTSSSTAYMQLTSLTSDDSAVYFCARGNYYGTRDWYFDVWGAGTTVTVSS
VL: QIVLTQSPAIMSASLGARVTMTCTASSSVSSSSLHWYQQKPGSSPKLWIYSISSLASGVPARFSGSGSGTSYSLTISSLEAEDAATYYCHQYHRSPPTFGGGTKLEIK
notes: Mouse hybridoma antibody, IgG2a; only variable domains given; also called AVS-3705
For B2, the binding result is on record as “no binding (tested: supernatant 1:5, 1:25, 1:250)” in test [2]; “no binding (tested: supernatant 1:5, 1:25, 1:250)” in test [3]; “no binding (tested: supernatant 1:5, 1:25, 1:250)” in test [4]; “no binding (tested: supernatant 1:5, 1:25, 1:250)” in test [5]; “no binding (tested: supernatant 1:5, 1:25, 1:250)” in [6]; “no binding (tested: supernatant 1:5, 1:25, 1:250)” in [7]. In addition, the binding result is on record as “no binding (tested: supernatant 1:5, 1:25, 1:250)” in test [8]; “no binding (tested: supernatant 1:5, 1:25, 1:250)” in [9]; “no binding (tested: supernatant 1:5, 1:25, 1:250)” in test [10]; “no binding (tested: supernatant 1:5, 1:25, 1:250)” in test [11]; “no binding (tested: supernatant 1:5, 1:25, 1:250)” in test [12].

B3: PD-1 EH13.2A11.17.1 human IgG4 (S228P) (antibody, V domains shown)
VH: EVKLVESGGGLVQPGGSLKLSCAASGFTFSSFTLSWVRQTPEKRLEWVAYISYGGADTYYPDTVKGRFTIFRDNAKNTLYLQMSSLKSEDTARYYCARHGPYGKGDYYAMDYWGQGTSVTVSS
VL: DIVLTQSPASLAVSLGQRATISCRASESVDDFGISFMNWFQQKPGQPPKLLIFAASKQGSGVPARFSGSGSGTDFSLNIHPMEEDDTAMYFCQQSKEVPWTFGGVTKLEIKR
notes: Chimeric: mouse EH13 variable domains on human IgG4 (S228P) and human kappa (Km3); The printed word SignalPeptide_ is a placeholder and is left out; also called LP PD-1 mAb (TP-31850); PD-1 mAb EH13 human IgG4
As to B3, in test [13], the Kd turned out to be 6.88 nM, the koff amounted to 0.00137 s⁻¹ and the kon amounted to 199000 M⁻¹ s⁻¹.

B4: PD-1 mAb EH13.2A11.17.1 (antibody, V domains shown)
VH: EVKLVESGGGLVQPGGSLKLSCAASGFTFSSFTLSWVRQTPEKRLEWVAYISYGGADTYYPDTVKGRFTIFRDNAKNTLYLQMSSLKSEDTARYYCARHGPYGKGDYYAMDYWGQGTSVTVSS
VL: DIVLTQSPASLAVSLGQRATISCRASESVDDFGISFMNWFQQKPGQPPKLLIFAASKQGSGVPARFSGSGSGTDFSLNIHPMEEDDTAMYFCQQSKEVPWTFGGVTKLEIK
notes: Parental mouse hybridoma antibody; also called parental control hybridoma
On to B4, for which, in test [13], the dissociation constant (Kd) was 7.1 nM, the off-rate constant (koff) worked out at 0.00154 s⁻¹ and the kon was 216000 M⁻¹ s⁻¹.
Consider B5, for which the binding result in [1] is “no binding (tested: 20 ug/ml)”.

B6: CD86 (ligand, human, UniProt P42081 24-329, looked up)
single chain: APLKIQAYFNETADLPCQFANSQNQSLSELVVFWQDQENLVLNEVYLGKEKFDSVHSKYMGRTSFDSDSWTLRLHNLQIKDKGLYQCIIHHKKPTGMIRIHQMNSELSVLANFSQPEIVPISNITENVYINLTCSSIHGYPEPKKMSVLLRTKNSTIEYDGVMQKSQDNVTELYDVSISLSVSFPDVTSNMTIFCILETDKTRLLSSPFSIELEDPQPPPDHIPWITAVLPTVIICVMVFCLILWKWKKKKRPRNSYKCGTNTMEREESEQTKKREKIHIPERSDEAQRVFKSSKTSSCDKSDTCF
notes: full length, on the cell surface
In the case of B6, the binding result in [1] is reported as “no binding (tested: 20 ug/ml)”.

B7: KIR3DL3 mAb 574.2.2F11.2.7.4 human IgG4 (S228P) (antibody, V domains shown)
VH: DVQLVESGGGLVQPGGSRKLSCAASGFTFSYFGMHWVRRAPEKGLEWVAFISSDSTTIYYTDTVKGRFTISRDNPKNTLFLQMTSLRSEDTAIYYCARFYDGAMDYWGQGTSVTVST
VL: DIVMTQSQKFMSTSVGDRVSITCKASQSVRTAVAWYQQKPGQSPKVLIYLASNRHTGVPDRFTGSGSGTDFTLTISNVQSEDLADYFCLQHWNYPLTFGAGTKLELKR
notes: Chimeric: mouse 2F11 variable domains on human IgG4 (S228P) and human kappa (Km3); Signal peptide placeholder left out; also called LP KIR3DL3 mAb (TP-31851); KIR3DL3 mAb 2F11 human IgG4
In test [14], B7 gave a Kd of 0.289 nM, a koff of 7.19e-05 s⁻¹ and a kon of 248000 M⁻¹ s⁻¹.
In the case of B8, the binding result in test [1] is recorded as “no binding (tested: 20 ug/ml)”.
Take B9: in [1], the binding result is on record as “no binding (tested: 20 ug/ml)”.
In the case of B10, the binding result in [1] is “no binding (tested: 20 ug/ml)”.
